Source: US20040058368A1 (PENN STATE RESEARCH FOUNDATION, published 2004)

B1: Gal80p (other, Saccharomyces cerevisiae (yeast), UniProt P04387 1-435, looked up)
chain: MDYNKRSSVSTVPNAAPIRVGFVGLNAAKGWAIKTHYPAILQLSSQFQITALYSPKIETSIATIQRLKLSNATAFPTLESFASSSTIDMIVIAIQVASHYEVVMPLLEFSKNNPNLKYLFVEWALACSLDQAESIYKAAAERGVQTIISLQGRKSPYILRAKELISQGYIGDINSIEIAGNGGWYGYERPVKSPKYIYEIGNGVDLVTTTFGHTIDILQYMTSSYFSRINAMVFNNIPEQELIDERGNRLGQRVPKTVPDHLLFQGTLLNGNVPVSCSFKGGKPTKKFTKNLVIDIHGTKGDLKLEGDAGFAEISNLVLYYSGTRANDFPLANGQQAPLDPGYDAGKEIMEVYHLRNYNAIVGNIHRLYQSISDFHFNTKKIPELPSQFVMQGFDFEGFPTLMDALILHRLIESVYKSNMMGSTLNVSNISHYSL
notes: Endogenous yeast protein, inside the cells; also called Gal80 protein

Key:
Gal4p = target: T1, Gal4p (Saccharomyces cerevisiae (yeast), UniProt P04386 1-881); assay: formaldehyde cross-linking and chromatin immunoprecipitation in yeast, un-induced against galactose-induced
T1 construct: Endogenous protein of wild type Sc723 cells, cross-linked in vivo
Experimental: Fold enrichments are indicated (enrichment). […] FIG. 3C illustrates quantitation of promoter occupancy by Gal4p, Gal80p and Gal3p in un-induced and induced cells. Values are means (±standard deviation) of at least five experiments carried out with two sets of independently prepared chromatin samples.
Chromatin immunoprecipitations were performed as described by Braunstein et al., 1993, Genes Dev. 7: 592-604 and Kuras et al. 1999, Nature 399: 609-613. Briefly, wild type Sc723 cells (Blank et al., 1997, Mol. Cell. Biol. 17: 2566-2575) were grown to early exponential growth phase (as measured by absorbance at 600 nm˜0.4) in 250 mL yeast extract-peptone medium containing 2% glycerol, 3% lactic acid, and 0.05% glucose (-galactose, un-induced). For galactose-induced cultures, galactose was added to the un-induced cultures to a final concentration of 2% and the cultures were incubated for an additional 20 minutes. Formaldehyde was added to a final concentration of 1%, the cultures were incubated for 20 minutes at room temperature, and glycine was added to a final concentration of 300 mM. All the following steps were carried out at […]. Cells were washed twice with TBS (20 mM Tris-HCl, 150 mM NaCl, pH 8.0), resuspended in 1 mL lysis buffer (50 mM Tris-HCl pH 8.0, 10 mM EDTA, 1% SDS, 1 mM PMSF), and disrupted by vortexing with glass beads. […]

wild type Gal3p = target: T2, wild type Gal3p (Saccharomyces cerevisiae (yeast), UniProt P13045 1-520); assay: cell-based or functional assay
T2 sequence (looked up): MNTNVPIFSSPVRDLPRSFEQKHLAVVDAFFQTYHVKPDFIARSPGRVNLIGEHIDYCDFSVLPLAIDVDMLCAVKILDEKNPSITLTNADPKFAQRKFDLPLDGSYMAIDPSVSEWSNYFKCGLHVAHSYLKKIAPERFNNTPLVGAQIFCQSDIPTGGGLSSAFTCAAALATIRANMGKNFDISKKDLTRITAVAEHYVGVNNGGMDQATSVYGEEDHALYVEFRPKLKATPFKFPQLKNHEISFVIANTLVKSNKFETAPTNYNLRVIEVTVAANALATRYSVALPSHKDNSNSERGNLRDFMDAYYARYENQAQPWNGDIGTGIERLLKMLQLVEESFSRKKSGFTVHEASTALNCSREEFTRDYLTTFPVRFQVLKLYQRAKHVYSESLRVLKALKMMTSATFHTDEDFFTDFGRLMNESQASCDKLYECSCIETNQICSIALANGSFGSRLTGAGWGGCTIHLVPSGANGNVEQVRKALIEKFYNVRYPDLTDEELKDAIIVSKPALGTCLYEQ

Gal80-TBP = target: T3, Gal80-TBP (Saccharomyces cerevisiae (yeast), UniProt P04387 1-435; P13393 1-240, limits assumed); assay: 80-Trap HIS3 reporter growth assay in yeast
T3 construct: The junction and any tags are not described
T3 sequence (looked up): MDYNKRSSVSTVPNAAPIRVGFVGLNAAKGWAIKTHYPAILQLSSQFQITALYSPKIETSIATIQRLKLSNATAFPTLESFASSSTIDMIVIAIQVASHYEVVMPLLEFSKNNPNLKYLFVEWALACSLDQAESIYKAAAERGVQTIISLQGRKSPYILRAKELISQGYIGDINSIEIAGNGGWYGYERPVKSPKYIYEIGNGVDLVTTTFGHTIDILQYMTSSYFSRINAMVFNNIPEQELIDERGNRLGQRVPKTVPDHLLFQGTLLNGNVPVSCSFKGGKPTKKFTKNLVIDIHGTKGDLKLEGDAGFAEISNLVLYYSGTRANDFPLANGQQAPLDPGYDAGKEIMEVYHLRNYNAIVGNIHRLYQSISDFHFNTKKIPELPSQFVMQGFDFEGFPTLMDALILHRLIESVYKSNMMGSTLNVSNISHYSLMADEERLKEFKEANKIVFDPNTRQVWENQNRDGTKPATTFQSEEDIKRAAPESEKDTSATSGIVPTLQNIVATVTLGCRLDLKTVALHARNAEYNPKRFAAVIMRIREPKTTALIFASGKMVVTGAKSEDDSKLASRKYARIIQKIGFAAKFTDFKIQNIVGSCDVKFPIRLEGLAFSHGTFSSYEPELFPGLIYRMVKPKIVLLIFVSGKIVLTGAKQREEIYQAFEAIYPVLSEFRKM
Source text: FIG. 5. (Yeast cells) A membrane-targeted transcription factor activates GAL gene expression through interaction with Gal80-TBP. Galactose-independent HIS3 reporter (expression as a result of Gal80-TBP and Myr-TAF145 interaction; lane 1). Lane 2 illustrates the positive control: interaction between two proteins known to interact: Fpr1 (in fusion with Gal80) and Hom3 (fused to the Myr sequence and CFP). Lane 3 is the negative control with Gal80-TBP tested against just the Myr sequence. The nutrient agar plate used here contained 3% glycerol/2% lactic acid as carbon source and lacked histidine, tryptophan and uracil.

Gal80p = target: B1; assay: UASGAL-HIS3 reporter growth assay in yeast without galactose
Source text: FIG. 6. (Yeast cells) Membrane targeted transcriptional activation domain of Gal4p (Gal4AD; amino acid 758-881) activates HIS3 reporter gene expression. A yeast strain harboring a UASGAL-HIS3 reporter was transformed with Myr-Gal4AD. […] Transformed cells were spotted on synthetic medium plates lacking histidine, tryptophan and uracil and containing 3% glycerol/2% lactic acid as carbon source.

In the case of B1, the binding result (Gal4p) is reported as “binds” and the “MEL1 gene expression level” value (wild type Gal3p) is reported as 2 fold reduction.

MGCTVSTQTIGDESDP (N-myristoylation signal) [Myr sequence]: no binding (Gal80-TBP).

B2: Membrane targeted transcriptional activation domain of Gal4p (Myr-Gal4AD) (other, Saccharomyces cerevisiae (yeast))
chain: MGCTVSTQTIGDESDPPLTPSALFGGANFNQSGNIADSSLSFTFTNSSNGPNLITTQTNSQALSQPIASSNVHDNFMNNEITASKIDDGNNSKPLSPGWTDQTAYNAFGITTGMFNTTTMDDVYNYLFDDEDTPPNPKKE
modifications: N-myristoylation signal at the N terminus
notes: range 758-881; also called membrane-localized Gal4AD
B2: binds (Gal80p).
